From US9427478B2, “Enzymatic conjugation of polypeptides” (Innate Pharma, priority 2013, dated 2016) come the findings set out here.

A short description of series [1]: SE-HPLC, physical stability after freeze/thaw and shaking. Particulars: physical stability study. Format: physicochemical.
Protocol: Physical stability was measured after a Freeze/Thaw (F/T) cycle in which ADC products are frozen at least 2 hours at −20° C. and thawed at least 1 hour at room temperature three times and tested 24 h after the last Freeze/Thaw cycle, and after shaking in which ADC products samples are shaken with a “vortex” 3 min at 3000 rpm and tested 24 h after this shaking stress application. […] Measurements were also made by SE-HPLC, performed with the Acquity UPLC from WATERS® with a BEH200 SEC 1.7 μm column. SE-HPLC is used to evaluate soluble and covalent/non-covalent aggregates levels and the proteic fragments that could be generated.
The nature of series [2]: SE-HPLC, chemical stability on storage. In kind it is physicochemical. As to the method: A chemical stability study monitored the molecular integrity of the ADC products that could be impacted following 3 months storage at +40° C. (thermal stress accelerated degradation storage conditions). Samples stored at +40° C. were compared to samples stored at +5° C., as assessed by SE-HPLC, performed with the Acquity UPLC from WATERS® with a BEH200 SEC 1.7 μm column.

For the sequence ADCETRIS ®, the “fragments, in words” value in series [1] and in series [2] (chemical stability at 5° C.) was “significant levels of fragments” each time. The Fragments % in series [2] (storage at 5° C., T1 W (1 week)) was determined as 1.77%.
